Assay results reported in IntAct's records for PubMed 22796944.

B1: Transcription elongation factor SPT5 (Saccharomyces cerevisiae), P27692 (parent)
chain: MSDNSDTNVSMQDHDQQFADPVVVPQSTDTKDENTSDKDTVDSGNVTTTESTERAESTSNIPPLDGEEKEAKSEPQQPEDNAETAATEQVSSSNGPATDDAQATLNTDSSEANEIVKKEEGSDERKRPREEDTKNSDGDTKDEGDNKDEDDDEDDDDDDDDEDDDDEAPTKRRRQERNRFLDIEAEVSDDEDEDEDEEDSELVREGFITHGDDEDDEASAPGARRDDRLHRQLDQDLNKTSEEDAQRLAKELRERYGRSSSKQYRAAAQDGYVPQRFLLPSVDTATIWGVRCRPGKEKELIRKLLKKKFNLDRAMGKKKLKILSIFQRDNYTGRIYIEAPKQSVIEKFCNGVPDIYISQKLLIPVQELPLLLKPNKSDDVALEEGSYVRIKRGIYKGDLAMVDQISENNLEVMLKIVPRLDYGKFDEIDPTTQQRKSRRPTFAHRAPPQLFNPTMALRLDQANLYKRDDRHFTYKNEDYIDGYLYKSFRIQHVETKNIQPTVEELARFGSKEGAVDLTSVSQSIKKAQAAKVTFQPGDRIEVLNGEQRGSKGIVTRTTKDIATIKLNGFTTPLEFPISTLRKIFEPGDHVTVINGEHQGDAGLVLMVEQGQVTFMSTQTSREVTITANNLSKSIDTTATSSEYALHDIVELSAKNVACIIQAGHDIFKVIDETGKVSTITKGSILSKINTARARVSSVDANGNEIKIGDTIVEKVGSRREGQVLYIQTQQIFVVSKKIVENAGVFVVNPSNVEAVASKDNMLSNKMDLSKMNPEIISKMGPPSSKTFQQPIQSRGGREVALGKTVRIRSAGYKGQLGIVKDVNGDKATVELHSKNKHITIDKHKLTYYNREGGEGITYDELVNRRGRVPQARMGPSYVSAPRNMATGGIAAGAAATSSGLSGGMTPGWSSFDGGKTPAVNAHGGSGGGGVSSWGGASTWGGQGNGGASAWGGAGGGASAWGGQGTGATSTWGGASAWGNKSSWGGASTWASGGESNGAMSTWGGTGDRSAYGGASTWGGNNNNKSTRDGGASAWGNQDDGNRSAWNNQGNKSNYGGNSTWGGH
B2: Cell division control protein 73 (Saccharomyces cerevisiae), Q06697 (parent)
chain: MANSLDRLREHLKNGDKLVLKNNEGQSTDDITKATMVETLSSDGSTQDSFPLNEETEIEIDGSLVQLRIIVHCWMNKDSSAADYLADCQNKQLTNVSFLQRTDLINWLSGNTESSQYLKAPGQKGETSDKVDIENKTLAGELSTVKSTTSASLENDSEVSDPVVVETMKHERILVDHNSALRGAKPINFGYLIKDAELKLVQSIKGSLRGSKLPPGHKGAHGRISKTNGSSGGPRKDPIILIPSAASSILTVANIKQFLLESKYVNPRNLPSVPNGLVNIEKNFERISRPIRFIIVDNTRMFTKPEYWDRVVAIFTTGHTWQFNNYQWNSPQELFQRCKGYYFHFAGDSVPQHVQQWNVEKVELDKNKRFKDVEVVRYFWHSLEKELISRGYR
B3: Cell division control protein 73 (Saccharomyces cerevisiae), Q06697 (parent)
chain: B2 chain
partner: B1 chain

Variants of: B1
Details: with rtf1_yeast RTF1, P53064
Chain of rtf1_yeast RTF1, P53064 (P53064 whole entry): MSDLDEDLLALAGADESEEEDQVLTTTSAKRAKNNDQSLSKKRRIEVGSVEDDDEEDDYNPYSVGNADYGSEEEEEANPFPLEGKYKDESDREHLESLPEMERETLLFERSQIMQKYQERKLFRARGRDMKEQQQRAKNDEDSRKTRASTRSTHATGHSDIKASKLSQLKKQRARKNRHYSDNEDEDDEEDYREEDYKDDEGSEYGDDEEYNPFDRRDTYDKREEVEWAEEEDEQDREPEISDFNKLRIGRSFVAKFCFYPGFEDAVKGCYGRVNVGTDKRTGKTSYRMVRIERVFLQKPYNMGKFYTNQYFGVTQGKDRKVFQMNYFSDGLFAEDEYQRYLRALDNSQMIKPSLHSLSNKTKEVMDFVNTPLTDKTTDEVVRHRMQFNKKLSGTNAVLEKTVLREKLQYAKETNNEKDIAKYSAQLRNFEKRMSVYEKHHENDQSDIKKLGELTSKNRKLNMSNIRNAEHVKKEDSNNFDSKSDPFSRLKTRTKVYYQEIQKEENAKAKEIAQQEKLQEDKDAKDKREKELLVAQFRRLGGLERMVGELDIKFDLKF

Row | Variant | effect of a mutation on the interaction
1 | M1D | decreasing interaction

Variants of: B2
Details: with rpb1_yeast RPO21, P04050
Chain of rpb1_yeast RPO21, P04050 (P04050 whole entry): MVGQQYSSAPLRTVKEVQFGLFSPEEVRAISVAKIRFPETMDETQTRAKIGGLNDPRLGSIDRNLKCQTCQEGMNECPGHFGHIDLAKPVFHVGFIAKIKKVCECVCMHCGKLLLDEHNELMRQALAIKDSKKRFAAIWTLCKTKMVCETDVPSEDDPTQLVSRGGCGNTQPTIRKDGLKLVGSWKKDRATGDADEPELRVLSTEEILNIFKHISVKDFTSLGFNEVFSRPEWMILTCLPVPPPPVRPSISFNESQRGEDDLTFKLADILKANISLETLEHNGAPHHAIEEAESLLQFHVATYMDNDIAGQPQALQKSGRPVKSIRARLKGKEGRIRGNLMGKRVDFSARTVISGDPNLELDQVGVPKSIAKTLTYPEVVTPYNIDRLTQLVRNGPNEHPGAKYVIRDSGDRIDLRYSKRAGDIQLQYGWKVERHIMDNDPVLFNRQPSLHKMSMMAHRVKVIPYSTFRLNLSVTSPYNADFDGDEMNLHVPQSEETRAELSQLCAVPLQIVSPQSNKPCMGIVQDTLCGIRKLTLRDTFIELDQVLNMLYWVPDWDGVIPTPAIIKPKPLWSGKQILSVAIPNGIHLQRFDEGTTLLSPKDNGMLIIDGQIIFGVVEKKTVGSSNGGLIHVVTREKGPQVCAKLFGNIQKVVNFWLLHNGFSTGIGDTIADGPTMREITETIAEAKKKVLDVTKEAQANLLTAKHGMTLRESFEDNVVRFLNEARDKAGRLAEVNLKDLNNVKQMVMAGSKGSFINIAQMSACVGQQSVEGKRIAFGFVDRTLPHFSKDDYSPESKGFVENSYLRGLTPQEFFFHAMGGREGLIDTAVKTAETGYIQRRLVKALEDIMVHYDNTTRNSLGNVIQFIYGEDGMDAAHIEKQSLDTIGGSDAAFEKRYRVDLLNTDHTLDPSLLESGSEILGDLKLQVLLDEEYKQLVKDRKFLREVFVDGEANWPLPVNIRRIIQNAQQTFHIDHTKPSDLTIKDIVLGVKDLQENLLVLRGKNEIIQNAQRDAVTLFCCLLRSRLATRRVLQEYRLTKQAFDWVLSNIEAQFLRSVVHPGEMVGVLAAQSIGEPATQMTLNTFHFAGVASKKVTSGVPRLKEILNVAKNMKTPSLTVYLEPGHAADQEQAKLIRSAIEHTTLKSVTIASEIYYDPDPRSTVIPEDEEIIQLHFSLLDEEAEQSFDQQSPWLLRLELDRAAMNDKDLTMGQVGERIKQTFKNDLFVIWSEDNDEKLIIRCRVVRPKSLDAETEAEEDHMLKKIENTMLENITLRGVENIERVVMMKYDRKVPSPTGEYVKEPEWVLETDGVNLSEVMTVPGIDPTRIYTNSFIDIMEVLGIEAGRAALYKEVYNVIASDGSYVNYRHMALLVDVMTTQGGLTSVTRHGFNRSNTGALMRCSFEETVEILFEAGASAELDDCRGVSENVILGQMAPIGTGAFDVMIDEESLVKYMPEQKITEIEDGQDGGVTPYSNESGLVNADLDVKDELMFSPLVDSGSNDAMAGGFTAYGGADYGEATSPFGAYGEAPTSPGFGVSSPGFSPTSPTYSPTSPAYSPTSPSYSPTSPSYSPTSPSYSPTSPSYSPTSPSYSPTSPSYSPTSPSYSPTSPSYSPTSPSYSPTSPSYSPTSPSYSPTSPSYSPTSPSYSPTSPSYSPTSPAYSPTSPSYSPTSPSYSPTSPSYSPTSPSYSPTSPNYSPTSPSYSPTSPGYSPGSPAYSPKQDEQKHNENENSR

Row | Variant | effect of a mutation on the interaction
2 | W357A | disrupting interaction
3 | W380A | disrupting interaction

Variants of: B3
Details: with spt5_yeast SPT5, P27692

Row | Variant | effect of a mutation on the interaction
4 | W357A | disrupting interaction
5 | W380A | disrupting interaction
